Results taken from PMC5727262, “Molecular mechanism of K65 acetylation-induced attenuation of Ubc9 and the NDSM interaction” (Scientific Reports, 2017).

Tests used:
[1] = target: Ac-Ubc9K65 (Ubc9 acetylated at K65) (UniProt P63279); experiment: ITC; 2 μl additions of peptide to 200 μl of WT Ubc9 or Ac-Ubc9K65; 25 °C; pH 8.0, 20 mM potassium phosphate, 100 mM NaCl; iTC200; fitted assuming 1:1 binding stoichiometry
Ubc9 (wild type) = Ubc9 (wild type) (UniProt P63279); experiment: as above
Ubc9 (wild type), sequence (P63279 whole entry): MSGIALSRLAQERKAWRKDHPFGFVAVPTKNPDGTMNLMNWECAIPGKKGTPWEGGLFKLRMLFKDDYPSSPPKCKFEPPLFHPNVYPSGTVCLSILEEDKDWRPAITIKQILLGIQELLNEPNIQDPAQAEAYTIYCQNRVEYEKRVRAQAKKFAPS

Ac-Ubc9K65 (Ubc9 acetylated at K65), sequence (P63279 whole entry): as above

Row | Kd [1] [µM] | Kd (Ubc9 (wild type)) [µM] | Substance
1 | 80 | 56 | Calpain2 NDSM peptide
2 | 103 | 70 | Elk1 NDSM peptide (from UniProt P19419 242-261)
3 | 13 | 13 | RanGAP1 peptide (consensus sumoylation motif) (from UniProt P46060 517-536)
